Experimental data from the DeepSol protein solubility set.

test: soluble on expression in E. coli; label from the status in PepcDB or PDB records

Sequence | soluble on expression in E. coli
WSQNEGKSVIPVQITKENSAYLADALLLDTSKEAQDAVENHSMMLSAKELFPVLETMKQIRQYGDSTDKNYGYRDEGSMFNSGNTAMYINGVWASKLIDEKIDACYAPFPGKNGSTIASSSVCLGYIVGNTGNQETMDASVEFLKYMLSEKVQKRILLETGQMPSSPKIHLEEYKEQIPRMCNAVEAIRGADRIIEVPDNLWTADQLENFRNQIMEVLNGTLDEEQFCTNLYQ | not soluble
MTAVRDPFFPADQSIRASHNPIEVRELGMMDYQRAWDLQAELNKQRQHDEINDVILVLEHPSIYTAGKRTQPSDRPQNGLPVIDVDRGGRITWHGPGQLVMYPIIKLAEPIDVVDYVRRVEEALIHVIRTHGIPNAGRIDGRSGVWVPGKTPEEHRKVAALGIRIAGGVTMHGLALNCDNTVEFYDYIVPCGISDAGVTTMSQEVGNDVTTQSMTAPLLAALDDAFAGRLVVADHSFASAPDPTKIPRRP | not soluble
MSLDQPVVGLITKTDTNPFFVKMKQGAEAAASKDGAKLITAAGKFDGDNASQVTAIENMMTAGAKAILITPSDTKAIVPSIKKARAAGVMVVALDTPTDPQDATDALFATDNFKAGVLIGKYAKAALNGKPAKIATLDLAPGVSVGVLRHNGFLEGFGVKEGDPSVVCSQDTRGDQAKGQTAMENCLQKSPDINVVYTINEPAAAGAYRALKAAGKDKSVMIVSIDGGCEGVRNVKAGAIAATSQQYPLKMASLGVTAGVEYAKTGKKVSGYQDTGVTLITDKPMAGIDSKDTKFGLDNCWGNEGHHHHHH | soluble
MKILAISDPHGDYSKMKQIIEKAGDFDLAVVVGDITNFGPDEQVDELAEMFDKPVLAIPGNCDQKTILEALENSKAVNLHGKAEQIGKIRFIGLGGSNPTPFNTPFELSEEEIENALEGMVCSAENSGECGTIVLLTHAPPLGARDELPFGHVGSKAIQKFLDRVDLIVCGHIHEAKGSEKVGKTVVVNPGEACKGSCALIEIEETGNKPIEVEFVEVLEHHHHHH | not soluble
MFNVSALAAATPSIASVSSVASPSEQHGLSTSVGVGVNDTTSRTGDGGAASSASSASAAPQQQSQSALHNKLEAKWDTLLPTDTNLQCSTWPDSIPLLAGYSATPTFSFDPCTYGSYDPSAYFASNGIAGSMYTLPDQFPRSENDMLDNSNTSNGNKSDKDGIKLEDEDEILEDEENDEEDDGTGKRKKRKRRVLFTKAQTYELERRFRSQKYLSAPEREALAMQIRLTPTQVKIWFQNHRYKTKKSHTDKPINAALLTTMPNAFSSQSTAASFPTRAMPIPMLVRDSSARSSDISSTSPYTVAFGSANSGYLPTPSAYLPATSGYFSNGPSAASSYMTNTQWWPS | not soluble
LRSNIDLFYTPGEILYGKRETQQMPEVGQRLRVGGMVMPGSVQRDPNSLKVTFTIYDAEGSVDVSYEGILPDLFREGQGVVVQGELEKGNHILAKEVLAKHDENYTPPEVEKAMEANHRRPASVYKDPASHHHHHH | soluble
MGDVVADALEKLSADQIEQFRKYFNMFDKEGKGYIRATQVGQILRTMGQAFEERDLKQLIKEFDADGSGEIEFEEFAAMVANFVVNNENDEGLEEELREAFRLYDKEGNGYINVSDLRDILRALDDNVSEEELDEMIAEIDADGSGTVDFDEFMEMMSGE | soluble
MNIREPPDVVIFCELIYGAAITCLKKFFLRDVFKIFITSHKANIDLMDVVIKSFTDSTNSGKLSKAWAHAQNCHTNFYELKNMKKKLKQNILKSVSEMNNIIKKADIDMINNNLKPFLKQMEKLPTKKTVTIGNESFEYNKTASWYN | not soluble
MHSDELLVEILVEELPAQALLNEYKEMPKKLHALFNKRALEVGNIEIFYTPRRLCLLIKDFPLLTQETKEEFFGPPVKIACNHQDKTQGLNALGLGFYQKLGLKDHQYFQTAFKNNKEVLYHAKIHEKEPTKDLIMPIVLEFLEGLNFGKSMRWGNVEKSFIRPIHNICVLFNGEDFSGIEVKEYGFKTKQATKVHRQEGFDFIQVDSPKAYFEVLEKNHVILDPKKREAKILQEIKELETKHHIIVETDRDLLDEVVAITEYPSALLGEFDKAFLKLPSEIIITSMKENQRYFATFCQKSQEESPTLHNGFIVVSNAINKDKQKIILGNQKVLKARLSDAVFFYENDLKKPLDNAPLESVVFVQGLGTLKDKMERESIIAQYLTQKYISSLNMPLEKALELVKRAVQIAKADLLSEVVYEFSELQGIMGYYYALKQNENELVALSVKEQYLPASENAPLPSSVFSSIVALSLKLDSLFSLFSVGKIPSGSKDPFALRRLSFGLLKIIAHYGLEFDLKADLKNLFQKVGVYQSFDLEILEKFLLERFHNLIDCNPSIIRSVLNTNERDIVK | not soluble
MGGLFVTPAKAVKTTNYAEEIAALQPGTTPEEIMKSASQIAKQQHVKQDVILKQFYKEITADKAEGDRLAKESGMSIMGGSSGTKKLPTSAKGNIYYTNSYTAYYNHGHVGMYSAADKIVESVPSDGVRQIAYNARDVEDNSIVQTVSVSSSQKTAAADWAVSKVGDPYSFNFVNNRNTGHDGAKNCSKLLWSAFLLKAGIDIDSNGGLGVYPRDITSSSYTTTIMTIYLEHHHHHH | not soluble
MKICTMGLGYIGLPTSAMFAKYGTEVVGVDIHQKVVDKLNNGEIHIEEPGLGEVVKEVVANGKFRASLTPEEADAFIISVPTPNHDDEHKSCDLSYVLTATEKVLPFVKKGNVIIVESTIAPRSMDDYVKPLVEEAGFTVGEDIYLVHCPERVLPGQILHELVHNNRIVGGVTPACAEAGARVYGVFVEGEIIKTNAKTAEMSKLMENTFRDVNIALANELTKVCNSLDINVLDVIEMANKHPRVNLHYPGPGVGGHCLAVDPYFIVAKAPELANIIKLSRETNVSMPHYVTEKVKELLAGVENPKVAAFGVTYKGNVDDMRESPAMDVIDLIRNEGITVSAHDPHVESDFFELHSAEEAVKDAHLILVLTDHDEFKTMNYDSLAPYMAKTVVFDTRNCVQAVSTGEMKIINFGTLYEALNKNVMMV | not soluble
MGSDKIHHHHHHENEYITNIDRTFGTRISYEISKRYGELGLEGSRSITIGLKGHAGQSFCAFLAKGVSVTLEGDANDYVGKCLSGGKIVIFPPKAASYKSEENSVIGNVALYGATSGDCWFRGVAGERFAVRNSGANVIVEAVGDHGCEYMTGGRVIVLGSIGRNFAAAMSGGIAYLFAQEDNFSRLINAATVDLDDASTEDLIFVKAK | not soluble
MGKALLIVNPSSGKEKGKTYQGKTEEVLKKRYDEVEVRLTEKAGDATEFASWASEQGFDAVIAMGGDGTLNETINGLAIHEKRPDFGFIPLGTVNDLARSVGIPLKPEKAIQALEKAKAIPMDIGRIGDQ | not soluble
MSLTHCKNQHCGGELGDYTGYIESPNYPGDYPANAECVWHIAPPPKRRILIVVPEIFLPIEDECGDVLVMRKSASPTSITTYETCQTYERPIAFTSRSRKLWIQFKSNEGNSGKGFQVPYVTYDEDYQQLIEDIVRDGRLYASENHQEILKDKKLIKALFDVLAHPQNYFKYTAQESKEMFPRSFIKLLRSKVSRFLRPYKEGHHHHHH | not soluble
MTETIKCIGCGVEIQTEDKNEVGYAPASSLEKEQVICQRCFRLKHYNEIQDVSLTDDDFLRILNGIGKSDALVVKIVDIFDFNGSWLPGLHRFVGNNKVLLVGNKADLIPKSVKHDKVKHWMRYSAKQLGLKPEDVFLISAAKGQGIAELADAIEYYRGGKDVYVVGCTNVGKSTFINRMIKEFSDETENVITTSHFPGTTLDLIDIPLDEESSLYDTPGIINHHQMAHYVGKQSLKLITPTKEIKPMVFQLNEEQTLFFSGLARFDYVSGGRRAFTCHFSNRLTIHRTKLEKADELYKNHAGDLLSPPTPEELENMPELVKYEFNIREPKTDVVFSGLGWVTVNEPGAKIVAHVPKGVSVSLRKSLI | soluble
MDREALLERLKEPFDLLVLGGGATGAGVLWEATLRGLKAALVEAGDFASGTSSRSTKLLHGGVRYLELAFKRLDRRQLKLVVDALHERKVVMDLAPHLAKPLTLVTPLFRPLEIPYYTLGLKLYDLLAGKRRLAPSRYLPPEEVARLFPDLPKTLGGVAYQDGQFADFRLNLALVLSALERGAVALNHAEATALLLEGGRVRGAVVRDGLSGKEVEVRAKAVVNATGSLADRVRRLLDPHLPPLLTASSGVHLVLDYPLEAGLLVPKTRDGRVLFLLPYRGMALLGTTDLPAEPASCPLPREEEVAYLLEEIRPYLGDVSGRVRAVWSGLRPLVGKGETKLLVRDHYIEERRGLYTLVGGKWTTFRLMALDLVERLAKDLGLALPPSKSHATPLLGAGPRPPLPLPEEAARRLWETYGTLAPEVLALGDRPLLPGLPYLEGEVVWAVRRELARKPLDVLARRMGLAFLDQEKTREALPKVVELMAGLLGWDERERALRLKEAEEGLPGLC | soluble
MGHHHHHHGSRKGAELGILIKNADALEVAEKVTAVIFDKTGTLTKGKPEVTDLVPLNGDERELLRLAAIAERRSEHPIAEAIVKKALEHGIELGEPEKVEVIAGEGVVADGILVGNKRLMEDFGVAVSNEVELALEKLEREAKTAVIVARNGRVEGIIAVSDTLKESAKPAVQELKRMGIKVGMITGDNWRSAEAISRELNLDLVIAEVLPHQKSEEVKKLQAKEVVAFVGDGINDAPALAQADLGIAVGSGSDVAVESGDIVLIRDDLRDVVAAIQLSRKTMSKIK | soluble
MVQAEGLTKRYRKAVAVEGLTFGVGPGEVYALLGPNGAGKTTTLRLLSTLVRPSAGRALVAGFDVVREPLEVRRNLGLVNGGMRVYERLTGREVLEFFAGFYGLKGRAFLGALDWVVDLLEMEETLDKKVGEMSTGMRQKVVIARAILHRPKVLLLDEATAGLDIFARRALLDFVKAYRDLGHAVIYSTHVMGEAEEVADRVGFLHRGRLVYEGSKEEALALGEGSLERAFVRQVRGA | soluble
MVTLCHVFGVHRSSYRYWKNRPEKPDGRRAVLRSQVLELHGISHGSAGARSIATMATRRGYQMGRWLAGRLMKELGLVSCQQPTHRYKRGGHEHVAIPNYLERQFAVTEPNQVWCGDVTYIWTGKRWAYLAVVLDLFARKPVGWAMSFSPDSRLTMKALEMAWETRGKPGGVMFHSDQGSHYTSRQFRQLLWRYQIRQSMSRRGNCWDNSPMERFFRSLKNEWMPVVGYVSFSKAAHAITDYIVGYYSALRPHEYNGGLPPNESENRYWKNSNSVASFC | not soluble
MSLAFRTLSFGIKRSQPKKKDADDLNKKKELSTITEESLRRYDELREKMIGKVESKIEKKVKKNKKKASIEILASRKRVHDSDGDSENEVEETVGDVEKRMQKLLDDIRRTNRIFTWGDHLPNIILRFSDSSMSPSLLNRLSENSIRQPSPIQMQSIPFMTERRNVLASAPTGSGKTLAFALPVIDEILELKQRADYSSSNSSKLLAVVLEPTRELAAQTYTEFLKYCANTSISAANFSGEETDIQHADILVSTPNRIVFHLDKIDTSSLRWLVVDESDRLFEVVEGQDKCFRNQLAAIYKACDAKCTRVAFFSATFSHEVEKWCKENIDEIGMVCVGERNSSNTSVKQKLTYCGTEDGKKIAIRNLLRTSFKPPALVFVQSKDRAVQLVKLLSAIDSNLKVDSINSGKSDKERDETMERFRRGEIWVLVCTELLGRGLDLSDVGLVINYDLPTSIVSYIHRVGRTGRAGKSGHAVTYFTDADMKYIKSIATVIRQSGFDVPEYLMEMKKVSRDRKKDMLKHAPKRHKIAIVKEQVIKKKKMLAKAAAEEKAKNKTETQTAEKPEKKIKKKKLIKKNNKNI | not soluble
MTRYALLVRGINVGGKNKVVMAELRQELTNLGLEKVESYINSGNIFFTSIDSKAQLVEKLETFFAVHYPFIQSFSLLSLEDFEAELENLPAWWSRDLARKDFLFYTEGLDVDQVIATVESLELKDEVLYFGKLGIFWGKFSEESYSKTAYHKYLLKVPFYRHITIRNAKTFDKIGQMLKK | soluble
